Data as given in FireProtDB (doi:10.1111/febs.14143).
“And” between values parts separate entries of the source, which are not always exact repeats. Equal entries are not always repeated.

B1: Guanine nucleotide-binding protein G(i) subunit alpha-3, P08753 (parent)
chain: MGCTLSAEDKAAVERSKMIDRNLREDGEKAAKEVKLLLLGAGESGKSTIVKQMKIIHEDGYSEDECKQYKVVVYSNTIQSIIAIIRAMGRLKIDFGEAARADDARQLFVLAGSAEEGVMTSELAGVIKRLWRDGGVQACFSRSREYQLNDSASYYLNDLDRISQTNYIPTQQDVLRTRVKTTGIVETHFTFKELYFKMFDVGGQRSERKKWIHCFEGVTAIIFCVALSDYDLVLAEDEEMNRMHESMKLFDSICNNKWFTDTSIILFLNKKDLFEEKIKRSPLTICYPEYTGSNTYEEAAAYIQCQFEDLNRRKDTKEVYTHFTCATDTKNVQFVFDAVTDVIIKNNLKECGLY

Variants of: B1
Settings: Rattus norvegicus; pH 7.5; Thermal; Fluorescence; HEPES; NaCl MgCl2 50000 2000; transition: 2; reversible: yes; structure 6MHE; whole UniProt chain shown

| Variant | Tm |
| --- | --- |
| MGCTLSAEDKAAVERSKMIDRNLREDGEKAAKEVKLLLLGAGESGKSTIVKQMKIIHEDGYSEDECKQYKVVVYSNTIQSIIAIIRAMGRLKIDFGEAARADDARQLFVLAGSAEEGVMTSELAGVIKRLWRDGGVQACFSRSREYQLNDSASYYLNDLDRISQTNYIPTQQDVLRTRVKTTGIVETHFTFKELYFKMFDVGAQRSERKKWIHCFEGVTAIIFCVALSDYDLVLAEDEEMNRMHESMKLFDSICNNKWFTDTSIILFLNKKDLFEEKIKRSPLTICYPEYTGSNTYEEAAAYIQCQFEDLNRRKDTKEVYTHFTCATDTKNVQFVFDAVTDVIIKNNLKECGLY [G203A] | 57.5 °C |
| MGCTLSAEDKAAVERSKMIDRNLREDGEKAAKEVKLLLLGAGESGKSTIVKQMKIIHEDGYSEDECKQYKVVVYSNTIQSIIAIIRAMGRLKIDFGEAARADDARQLFVLAGSAEEGVMTSELAGVIKRLWRDGGVQACFSRSREYQLNDSASYYLNDLDRISQTNYIPTQQDVLRTRVKTTGIVETHFTFKELYFKMFDVGGQRSERKKWIHCFEGVTAIIFCVALSDYDLVLAEDEEMNRMHESMKLFDSICNNKWFTDTSIILFLNKKDLFEEKIKRSPLTICYPEYTGSNTYEEAAAYIQCQFEDLNRRKDTKEVYTHFTCSTDTKNVQFVFDAVTDVIIKNNLKECGLY [A326S] | 64 °C and 62.5 °C |

Same assay, conditions: Rattus norvegicus; pH 7.5; Thermal; DSC; HEPES; NaCl MgCl2 50000 2000; transition: 2; reversible: yes; structure 6MHE; whole UniProt chain shown

| Variant | Tm [°C] |
| --- | --- |
| MGCTLSAEDKAAVERSKMIDRNLREDGEKAAKEVKLLLLGAGESGKSTIVKQMKIIHEDGYSEDECKQYKVVVYSNTIQSIIAIIRAMGRLKIDFGEAARADDARQLFVLAGSAEEGVMTSELAGVIKRLWRDGGVQACFSRSREYQLNDSASYYLNDLDRISQTNYIPTQQDVLRTRVKTTGIVETHFTFKELYFKMFDVGGQRSERKKWIHCFEGVTAIIFCVALSDYDLVLAEDEEMNRMHESMKLFDSICNNKWFTDTSIILFLNKKDLFEEKIKRSPLTICYPEYTGSNTYEEAAAYIQCQFEDLNRRKDTKEVYTHFTCATDAKNVQFVFDAVTDVIIKNNLKECGLY [T329A] | 65 |
